Measured values taken from article PMC5660092.

Target: Bcl-2 (UniProt P10415)
Test: co-IP of Flag-Beclin 1
Conditions: reference: wild type; sites S90

Substance: Beclin 1 (from UniProt Q14457) S90A
- binding against the reference: stronger
